Holding throughout (test): EMSA
Common to all, as to conditions: EMSA: 20 pM dsRNA, 50 mM KCl, 10 mM Tris-HCl pH 8.0, 10% glycerol, 1 mM MgCl2, 0.5 mM DTT, on ice 30 min; native 6% gel, 0.5x TBE, 4 C

Data set [1] concerns the target T1, ADR-1 dsRBD1 mutant (ds1) K223E;K224A;K227A (Caenorhabditis elegans) (UniProt Q9U3D6).
T1 sequence: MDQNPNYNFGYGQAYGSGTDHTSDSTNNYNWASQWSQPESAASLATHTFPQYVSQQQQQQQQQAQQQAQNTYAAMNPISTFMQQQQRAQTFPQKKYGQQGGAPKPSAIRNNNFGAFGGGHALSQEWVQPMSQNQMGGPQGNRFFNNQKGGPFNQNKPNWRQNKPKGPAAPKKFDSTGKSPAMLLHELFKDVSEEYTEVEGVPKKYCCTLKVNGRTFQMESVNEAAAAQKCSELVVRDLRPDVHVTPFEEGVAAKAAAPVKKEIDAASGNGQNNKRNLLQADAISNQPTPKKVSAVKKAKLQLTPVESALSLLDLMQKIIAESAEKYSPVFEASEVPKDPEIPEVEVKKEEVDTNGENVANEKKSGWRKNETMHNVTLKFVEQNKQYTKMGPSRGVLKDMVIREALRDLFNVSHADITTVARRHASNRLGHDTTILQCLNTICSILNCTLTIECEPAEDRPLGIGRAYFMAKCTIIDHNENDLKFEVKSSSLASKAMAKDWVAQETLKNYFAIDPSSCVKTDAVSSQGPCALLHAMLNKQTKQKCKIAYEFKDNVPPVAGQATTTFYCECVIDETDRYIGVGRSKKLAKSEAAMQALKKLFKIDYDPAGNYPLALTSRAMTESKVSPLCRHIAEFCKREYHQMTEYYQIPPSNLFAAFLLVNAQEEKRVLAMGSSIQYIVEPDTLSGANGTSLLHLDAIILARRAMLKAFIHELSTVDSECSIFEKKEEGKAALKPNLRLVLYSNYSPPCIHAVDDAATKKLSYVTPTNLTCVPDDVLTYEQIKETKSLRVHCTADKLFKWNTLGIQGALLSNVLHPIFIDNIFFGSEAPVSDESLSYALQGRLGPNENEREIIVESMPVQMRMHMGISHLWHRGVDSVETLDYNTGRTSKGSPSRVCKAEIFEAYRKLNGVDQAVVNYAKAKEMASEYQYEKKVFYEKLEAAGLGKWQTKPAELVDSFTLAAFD

In data set [2] the target is ADR-1 WT;ADR-2 WT (Caenorhabditis elegans;Caenorhabditis elegans) (UniProt Q9U3D6+Q22618).
For data set [3], the target named is T2, ADR-1 dsRBD2 mutant (ds2) K584E;K585A;K588A (Caenorhabditis elegans) (UniProt Q9U3D6).
T2 sequence: T1 sequence with E223K, A224K, A227K, K584E, K585A, K588A

Positions count from the first letter of the chain named.

Chain of ADR-1 WT;ADR-2 WT (Caenorhabditis elegans;Caenorhabditis elegans) (Q22618 whole entry, one chain of several): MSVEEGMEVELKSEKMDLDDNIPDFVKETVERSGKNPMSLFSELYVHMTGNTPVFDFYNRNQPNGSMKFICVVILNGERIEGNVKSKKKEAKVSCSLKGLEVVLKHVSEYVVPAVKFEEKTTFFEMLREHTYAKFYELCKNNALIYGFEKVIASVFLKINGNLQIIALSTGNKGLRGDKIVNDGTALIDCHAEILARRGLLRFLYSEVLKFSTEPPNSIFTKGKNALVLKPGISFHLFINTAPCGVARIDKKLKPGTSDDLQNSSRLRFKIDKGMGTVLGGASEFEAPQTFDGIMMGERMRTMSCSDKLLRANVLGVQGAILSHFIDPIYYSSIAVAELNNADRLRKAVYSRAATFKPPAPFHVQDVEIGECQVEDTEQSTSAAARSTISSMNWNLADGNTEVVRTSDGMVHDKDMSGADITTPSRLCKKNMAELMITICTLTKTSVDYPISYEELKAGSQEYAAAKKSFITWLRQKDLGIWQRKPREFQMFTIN

With “UUAUUAGGUCGGCAAAUAAUUAUUGACGUGUUUUGCCAAUUAACGAUUUUUUGUAAAUUUUAUAUGUGUCUCUUACAGUAAACCGAGAGUGUAUAAAAGCAUAUGAAUAUCAGUUGCUUUGGUCAUCUGAGUAGUAAUACGAUUCGAAAAAAUCGAAAAGUUUUUUUUCCAAUUUUUUGAGUUAGCCGUGAGAGUUG / CAACUCUUCACAGCUAACUCAAAAAAUCGCGAAAAGCAUUUUUCAAAAAAUUUUUGAUUUUUUAGAUUCUUAAUACUACGCAGGUAGCCAAAGUAGCUGAUAUUUUUAUGUUUUCAUACAUUCACAUUUUACUAUAAGACACACAUACAAAAUUUACAAAAAUUGUUAAUUGACAAAAUACGUCAAUAAUUAUUUGUCUACCUAAUAA [lam-2 3'UTR 200 bp dsRNA]”, the Kd was determined as 1.47 nM in data set [1], 1.5 nM in data set [2] and 0.95 nM in data set [3].

Values taken from publication PMC6182170.
